Here are results for 41 sequences from the nanobody polyreactivity screen of Harvey et al. (2022).

A short description of this data set: yeast display, Sf9 membrane polyspecificity reagent, FACS + sequencing; frameworks hold sequencing errors. The method, boiled down:
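In a synthetic yeast display library (Saccharomyces cerevisiae BJ5465), nanobody expression was induced with galactose for 36–48 hours. FACS gates were set low and high (top ~1%) using anti-HA fluorescence for expression and streptavidin fluorescence for binding of the Sf9 membrane reagent. Each polyreactivity label is drawn from the gate of origin.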
As to “QVQLVESGGGLVQAGGSLRLSSAASGFVCNAMGWYRQAPGKERDLVAAIDSSGGNTYYADSVKGRFTISRDNAKNTVYLQMNSMKPEDTAVYYCAARYVERHTDYYYWGQGTQVTVSS”, the “polyreactivity (PSR sort gate)” value is on record as “low polyreactivity”.

Turning to “QVQLVESGGGLVQAGGSLRLSSAASGGTFGFNAMGWYRQAPGKERELVSGISSRGGSTYYADSVKGRFTISRDYAKNTVYLQMNSLKPEDTAVYYCNARQYPGRSWYRYDYWGQGTQVTVSS”, the “polyreactivity (PSR sort gate)” value is recorded as “high polyreactivity”.

On to “QVQLVESGGGLVQAGGSLRLSSAASGIICAIYAMGWYRQAPGKERELVAAITWRGGSTYYADSVKGRFTISRDNAKNSVYFQKNRLKPEDTAVYYCAAVTKSLYGYDYWGQGTQVNVSS”, for which the “polyreactivity (PSR sort gate)” value was “low polyreactivity”.

Turning to “QVQLVESGGGLVQAGGSLRLSSAASGITFGAYAMGWYRPAPGKERELVAAIRRSDGSTYYADSVKGRFTISRDNAKNTVDLQINSLKPEETAVYYCAADEGLYQGYEYDYWGHGTQVTVSS”, the “polyreactivity (PSR sort gate)” value is “high polyreactivity”.

With “QVQLVESGGGLVQAGGSLRLSSAASGITFGRNTMGWYRQAPGKEREFVAAIDSGGNTYADSVQGRFTISRDNAKNTVYLQMNSLKPEDTAVYYCAVAGGEFSSYGYLGQGTQVTVSS”, the “polyreactivity (PSR sort gate)” value was “low polyreactivity”.

“QVQLVESGGGLVQAGGSLRLSSAASGITFRNYAMGWSRQAPGKERELVAAITRGGRTNYADSVKGRFTISRDNAKNTVYLQMNSLKPEDTAVYYCATGRDSNFGNSYYYWGQGTQVTVSS”: the “polyreactivity (PSR sort gate)” value is “high polyreactivity”.

Consider “QVQLVESGGGLVQAGGSLRLSSAASGITFTRNAMGWYRQAPGKERELVATIDSGDSTYYADSVKGRFTISRDNAKNTVYLQMNSQKPEDTAVYYCAAEWYGYEPSYWYYWPYEYWGQGTQVTVSS”, for which the “polyreactivity (PSR sort gate)” value was “high polyreactivity”.

“QVQLVESGGGLVQAGGSLRLSSAASGLIFRHNAMGWYRQAPGKERELVAAISSTGGRTYYADSVKGRFTISRDNAKNTVYLQMNSLKPEDTAVYYCAARHTKALWSPQNGYYWGQGTQVTVSS”: the “polyreactivity (PSR sort gate)” value was “high polyreactivity”.

For the sequence “QVQLVESGGGLVQAGGSLRLSSAASGLIFWAYAMGWYRQAPGKERELVAAINSGGRTYYADSVKGRFTISRDNAKNTVYLQMNSLKPEDTAVYYCAAAGVYSSDYWGQGTQVTVSS”, the “polyreactivity (PSR sort gate)” value is recorded as “low polyreactivity”.

In the case of “QVQLVESGGGLVQAGGSLRLSSAASGLTFQEYAMGWYRQAPGKESELVAAISWSGGSTYYADSVKGRFTISRDNAKNTVYLQMNSLKPEDTAVYYCAAEAYEEYITGWYAYDYWGQGTQVTVSS”, the “polyreactivity (PSR sort gate)” value is listed as “high polyreactivity”.

For “QVQLVESGGGLVQAGGSLRLSSAASGLTFTYYVMGWYRQAPGKERELVAAITVSGGSTYYADSVKGRFTISRDNAKNTVYLQMNSLKPEDTAVYYCAADAYSGYSDYYWGQGTQVTVSS”, the “polyreactivity (PSR sort gate)” value is on record as “low polyreactivity”.

With “QVQLVESGGGLVQAGGSLRLSSAASGLTIAPYARGWYRPAPGKVWELVAAITQRGSSTYYADSVKGRFTISRDNAKNTVYLQMNSLKRVDTAVYYCAARYRARYYWGQGTQVTVSS”, the “polyreactivity (PSR sort gate)” value is “high polyreactivity”.

Regarding “QVQLVESGGGLVQAGGSLRLSSAASGNINSWNTMGWYRQAPGKERELVAAITFRGTRTFYADSVKGRFTISRDNAKNTVYLQMNSLKPDDTAVFYCAARYYYSYSLGYDYWGQGTQVTVSS”, the “polyreactivity (PSR sort gate)” value is “high polyreactivity”.

With “QVQLVESGGGLVQAGGSLRLSSAASGNTIYGYAMGWYRQAPGNERELVASITLSGDSTYYADSVKGRFTISRDNAKNTVYLQMNSLKPEDTAVYYCAGVYTYPLGYYHYTYDYWGQGTQVTVSS”, the “polyreactivity (PSR sort gate)” value was “low polyreactivity”.

For “QVQLVESGGGLVQAGGSLRLSSAASGRIFAHNAMGWSRQAPGKERELVAAITWSGGSTYYADSVKGRFTISRDNAKNTVYLQMNSLKPEDTAVYYCNTDSHGHLYIYWGQGNQVTVSS”, the “polyreactivity (PSR sort gate)” value is on record as “low polyreactivity”.

For the sequence “QVQLVESGGGLVQAGGSLRLSSAASGRIFPGYSMGWYRQAPGKERELVASISRTGRTNYADSVKGRFTNSRDNAKNTVYLPMHSLKPEDTAVYYCAAGIVVTGYDYWGQGTQVSVSS”, the “polyreactivity (PSR sort gate)” value is listed as “low polyreactivity”.

With “QVQLVESGGGLVQAGGSLRLSSAASGRIFRRNTMGWYRQAPGKERELVAAITSSGGSTYADSVKGRFTISRDNAKNTVYLQMNSLKPEDTAVYYCATYVAYHRGYRTYDHWGQGTQVTVSS”, the “polyreactivity (PSR sort gate)” value is reported as “low polyreactivity”.

Turning to “QVQLVESGGGLVQAGGSLRLSSAASGRIFSDYDMGWYRQAHGKERELVAAITSGGITNYADSVKGRFTISRDNAKNTVYLQMNSLKPEDTAVYYCATGRRRYYFREYYYWGQGTQVTVSS”, the “polyreactivity (PSR sort gate)” value is listed as “high polyreactivity”.

As to “QVQLVESGGGLVQAGGSLRLSSAASGRIFWTNAMGWYRQAPGKERELVAGITWRGGSTYYADSVKGRFTISRDNAKNTVSLQMNSLKPEDTAVYYCASRQGWYSGFDYWGQGTQVTVSS”, the “polyreactivity (PSR sort gate)” value is recorded as “high polyreactivity”.

Take “QVQLVESGGGLVQAGGSLRLSSAASGRIFYNYAMGWYRQAPGKERELVAAISVSGGSTYYADSVKGRFTISRDNAKNTVYLQMNSLKPEDTAVYYCAAGRGYTYNYWGQGSQVTVSS”: the “polyreactivity (PSR sort gate)” value is “high polyreactivity”.

On to “QVQLVESGGGLVQAGGSLRLSSAASGRMFHFNAMGWYRQARGKERELVARITFSGGSTYYADSVKGRFTISRDNAKNTVYLQMNSLKPEDTAVYYCAVDAPPIFYEGGDYWGQGTQVTVSS”, for which the “polyreactivity (PSR sort gate)” value is given as “low polyreactivity”.

“QVQLVESGGGLVQAGGSLRLSSAASGRNFGPYTMRWSRQAPGKERELVATISYSGSTTYYADSVKGRFTISRDNAKNTVYLQMNSLKPEDTAVYYCNAQYYVFITFDYWGQGTQVTVSS”: the “polyreactivity (PSR sort gate)” value is “high polyreactivity”.

Take “QVQLVESGGGLVQAGGSLRLSSAASGRTFHSYARGWYRQSPGKERELVAGMSWGGTRTTYADSVKGRFTLSRDNAKNTVYLQMNSLKPEDTADYYCNAVYYALGRSPPDYGYWGQGTQVTVSS”: the “polyreactivity (PSR sort gate)” value is on record as “low polyreactivity”.

As to “QVQLVESGGGLVQAGGSLRLSSAASGRTFNVNAMGLYRQAPGKERELVAAIDFSDGRTYYADSVKGRFTISRDNAKNTVYLQMNSLKPADTAVYYCARSFRVGKTWYDYWGQGTQVTVSS”, the “polyreactivity (PSR sort gate)” value is recorded as “high polyreactivity”.

Take “QVQLVESGGGLVQAGGSLRLSSAASGRTFQTNAMGWYRQAPGKERELVAAISSTGGSTYYADSVKGRFTISRDNAKNTVYLQMNSLKPEDTAVYYCNAGRTYRYDFWGQGTQVTVSS”: the “polyreactivity (PSR sort gate)” value is given as “high polyreactivity”.

Regarding “QVQLVESGGGLVQAGGSLRLSSAASGRTFSYNTMGWYSQAPGQERELVARITWGGGSTNYAVSVKGRFTISRDNAKNTVYLQMNSLKPEDTAVYYCAAGPSVPYGPQKVDYWGQGTLVTVSS”, the “polyreactivity (PSR sort gate)” value was “low polyreactivity”.

As to “QVQLVESGGGLVQAGGSLRLSSAASGRTFVNYTMGWYRQAPGIERELVAAITSSGGSTYYADSVKGRFTISRDNAKNTVYLQMNSLKPEDTAVYYCAAAKFDLSFWLYYWGQGTQVTVSS”, the “polyreactivity (PSR sort gate)” value is reported as “low polyreactivity”.

Regarding “QVQLVESGGGLVQAGGSLRLSSAASGRTFYLNAMGWYRQAPGKERELVAAIRISGGSTYYADSVKGRFTISRDNAKNTVYLQMKSLKPEDTAVYYCIAGPYHALSPTVSEYGYWGQGSQVTVSS”, the “polyreactivity (PSR sort gate)” value was “low polyreactivity”.

For the sequence “QVQLVESGGGLVQAGGSLRLSSAASGRTSYVYAMGWYRQEPGKERELVAVITRRGGSTYYADSVKGRFTISRDNAKNTVYLQMNSLKPEDTAVYYCNAAYTTWRRGPMNYWGQGTQVTVSS”, the “polyreactivity (PSR sort gate)” value is listed as “high polyreactivity”.

Consider “QVQLVESGGGLVQAGGSLRLSSAASGSIFAYNDMGWYRQAPGKERELVAAITWSGDSTYYADSVKGRFTISRDNAKNTVYLQMNSLKPEDTAVYYCATDPLFKTSTRWKYDYWGQGTQVTVSS”, for which the “polyreactivity (PSR sort gate)” value is “low polyreactivity”.

“QVQLVESGGGLVQAGGSLRLSSAASGSIFKYNAMGWYRQAPGEERELVAAIRWSGGSTYYADSVKGRFTISRDNAKNTVYLQMNSLKPEDTAVYYCAAEYFNQNTRQGYDYWGQGSQVTVSS”: the “polyreactivity (PSR sort gate)” value is “low polyreactivity”.

In the case of “QVQLVESGGGLVQAGGSLRLSSAASGSIFKYYAMGWYRQAPGKERELVATISSVGSTNYADSVKGRFTISRDNAKNTVYLKMNSLKPEATAVYYCNARIGSRSYAWISTRYDYWGQGTQVTVSS”, the “polyreactivity (PSR sort gate)” value is given as “high polyreactivity”.

Turning to “QVQLVESGGGLVQAGGSLRLSSAASGSIFLYNAMGWYRQAPGKERELVAAISGSGGRTNYADSVKGRFTISRDHAKNTVYLQMNSLKPEVTAVYYCAAGYHVFRLGYARIPLYDYWGQGTQVTVSS”, the “polyreactivity (PSR sort gate)” value is on record as “low polyreactivity”.

“QVQLVESGGGLVQAGGSLRLSSAASGSIFWHYAMGRYRQAHGKERQLVAGISTRGGITYFADSVKGRFTISRDNAKNTVYLQMNSLKPEDTAVYYCNGVLFFQWFWTYDDYWGQGTQVTVSS”: the “polyreactivity (PSR sort gate)” value was “low polyreactivity”.

Regarding “QVQLVESGGGLVQAGGSLRLSSAASGSIIKYYAMGWYRQAPGKERELVAAINKSGGTTYYADSVKGRFTISRDNAQNPVYLQMNSLKPEDTAVYYCATDNTVVYQPGNMDFWGQGTQVTVSS”, the “polyreactivity (PSR sort gate)” value is “low polyreactivity”.

Take “QVQLVESGGGLVQAGGSLRLSSAASGSILPLYAMGWYRQAPGKERELVADISWSGGDTYYADSVKGRFTISRDKAKNTVYLQMNSLKPEDTAVYYCNSRLDYSTYESSPVTRKRVYWGQGTQVTVSS”: the “polyreactivity (PSR sort gate)” value is “low polyreactivity”.

In the case of “QVQLVESGGGLVQAGGSLRLSSAASGSILWQYAMGWYRQAPGTERELVAAMTYSGGSTHYADSVKGRFTISRDNAKNTVYLQMNSLKPEDTAVYYCAAGYWYRYAALRYDHWGQGTQVTVSS”, the “polyreactivity (PSR sort gate)” value was “low polyreactivity”.

In the case of “QVQLVESGGGLVQAGGSLRLSSAASGSTFGYYAMGWYRQAPGKERELVAVIRSRTGDTNYADSVKGRFTISRDNAKNTVYLQMNSQKPEDTAVYYCNAALWYGSTIYSYRYGYWGHGTQVTVSS”, the “polyreactivity (PSR sort gate)” value was “high polyreactivity”.

Take “QVQLVESGGGLVQAGGSLRLSSAASGSTFRYNALGWYRQAPGKERELVAAISSSGGSTRYADSVKGRFTISRDNEKYTDYLQMNSLKPEDTAVYYCDVRFYDWRYYYWGQGTQVTVSS”: the “polyreactivity (PSR sort gate)” value is listed as “high polyreactivity”.

On to “QVQLVESGGGLVQAGGSLRLSSAASGSTFVWYAMGWYRQAPGKERELVASISGSGGRTYYADSVKGRFTISRDNAKNTVYLQMNSLKPEDTAVYYCAAYYRKTGYDYWGQGTQVTVSS”, for which the “polyreactivity (PSR sort gate)” value is “high polyreactivity”.

In the case of “QVQLVESGGGLVQAGGSLRLSSAASGSTFYWYTMGWYRQAPGKERELVARISKRGGSTYYADSVKGRFTISRDNAKNTVYLQMNSLKPEDTAVYYCNATSRTVGFGYWGQGTQVTVSS”, the “polyreactivity (PSR sort gate)” value is “high polyreactivity”.
